Measured values taken from paper PMC3538841.

Biological target: HA ectodomain of B/Florida/4/2006 (influenza B virus B/Florida/4/2006 (Yamagata lineage))
Test: negative stain EM reconstruction

HA ectodomain of B/Florida/4/2006 (domain or fragment)
stoichiometry N: 3
